The numbers were not newly measured in article PMC7081292, which cites them from elsewhere.

The pKa is the negative logarithm of the acid dissociation constant.

Read-outs that look alike come from different tables or passages of the source.

Data set [1] has as its target T1, His57 (UniProt position 57, VVTAAHCGVTT). The note with it: zwitterionic tetrahedral (hemiacetal) adduct with an aldehyde inhibitor.
Data set [2] deals with T1, His57. The experiment in a line: NMR. The settings on record: zwitterionic tetrahedral adduct with a peptide-derived glyoxal inhibitor.

For “Chymotrypsin (not stated (presumably Bos taurus))”, the pKa result is reported as “∼ 8” in the data set with His57 [1] and greater than 11 with His57 [2].
